Consider one molecule from PMC11360484 (Toxins, 2024).

The Kd is the equilibrium constant for the complex coming apart.

This assay deals with T1, recombinant ecarin (rEcarin), SVMP PIII prothrombin activator from Echis pyramidum leakeyi (Echis pyramidum leakeyi (Kenya; entry …).
T1 construct: also called His10-tagged recombinant ecarin
Put plainly: BLI; Octet HTX; […]; 30 C; PBS with 0.1% TWEEN 20 and 0.1% BSA; 180 s association, 180 s dissociation; 1:1 model, […]. The conditions noted are these: both partners purified.

T1 sequence (heavy, as listed by the source): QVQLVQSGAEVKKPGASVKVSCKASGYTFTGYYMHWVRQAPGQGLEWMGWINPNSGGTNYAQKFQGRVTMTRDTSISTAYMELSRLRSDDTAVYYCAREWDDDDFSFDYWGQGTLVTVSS

B1: H11 IgG1 (synthetic human antibody against rEcarin) (antibody, V domains shown)
VH: not shown
VL: QSALTQPASVSGSPGQSITISCTGTSSDVGGYNYVSWYQQHPGKAPKLMIYEVSNRPSGVSNRFSGSKSGNTASLTISGLQAEDEADYYCSSYTSSSTLVVFGGGTKLTVL
notes: copies: 2 + 2
Take B1: the Kd worked out at 87 ± 8 nM.
